Assay: melting temperature; melt of duplexes
Conditions: sodium 0.0675 M; strand 1 µM

For “CGACGTGCACGATGTGCTG+CAGCACATCTGGCACGTCG ((((((((..(((((((((+)))))))))..))))))))”, the Tm was 53.6 °C.

With “CGACGTGCACGATGTGCTG+CAGCACATGAAGCACGTCG ((((((((...((((((((+))))))))...))))))))” the Tm was 46.2 °C.

Substance “CGACGTGCACGATGTGCTG+CAGCACATGCAGCACGTCG ((((((((...((((((((+))))))))...))))))))” has a Tm of 45.9 °C.

“CGACGTGCACGATGTGCTG+CAGCACATGGCGCACGTCG ((((((((.(.((((((((+)))))))).).))))))))” gave a Tm of 50.2 °C.

For “CGACGTGCACGATGTGCTG+CAGCACATGGTGCACGTCG ((((((((((.((((((((+)))))))).))))))))))”, the Tm was 55.8 °C.

With “CGACGTGCACGATGTGCTG+CAGCACATGTAGCACGTCG ((((((((...((((((((+))))))))...))))))))” the Tm was 48.7 °C.

Work on “CGACGTGCACGATGTGCTG+CAGCACATGTTGCACGTCG (((((((((..((((((((+))))))))..)))))))))” yielded a Tm of 49.9 °C.

“CGACGTGCACGATGTGCTG+CAGCACATTAAGCACGTCG ((((((((...((((((((+))))))))...))))))))” showed a Tm of 46.5 °C.

“CGACGTGCACGATGTGCTG+CAGCACATTCAGCACGTCG ((((((((...((((((((+))))))))...))))))))” showed a Tm of 45.5 °C.

In the case of “CGACGTGCACGATGTGCTG+CAGCACATTGCGCACGTCG ((((((((.(.((((((((+)))))))).).))))))))”, the Tm is reported as 52.1 °C.

Substance “CGACGTGCACGATGTGCTG+CAGCACATTGGGCACGTCG ((((((((.(.((((((((+)))))))).).))))))))” has a Tm of 56.4 °C.

In the case of “CGACGTGCACGATGTGCTG+CAGCACATTTGGCACGTCG ((((((((...((((((((+))))))))...))))))))”, the Tm is reported as 46.8 °C.

Work on “CGACGTGCACGATGTGCTG+CAGCACATTTTGCACGTCG (((((((((..((((((((+))))))))..)))))))))” yielded a Tm of 48.5 °C.

“CGACGTGCACTATGTGCTG+CAGCACATACAGCACGTCG ((((((((..(((((((((+)))))))))..))))))))” gave a Tm of 45.4 °C.

Work on “CGACGTGCACTATGTGCTG+CAGCACATACGGCACGTCG ((((((((..(((((((((+)))))))))..))))))))” yielded a Tm of 46 °C.

Substance “CGACGTGCACTATGTGCTG+CAGCACATACTGCACGTCG (((((((((.(((((((((+))))))))).)))))))))” has a Tm of 48.8 °C.

With “CGACGTGCACTATGTGCTG+CAGCACATAGGGCACGTCG ((((((((.((((((((((+)))))))))).))))))))” the Tm was 58.9 °C.

In the case of “CGACGTGCACTATGTGCTG+CAGCACATATTGCACGTCG (((((((((.(((((((((+))))))))).)))))))))”, the Tm is reported as 51.5 °C.

For “CGACGTGCACTATGTGCTG+CAGCACATCACGCACGTCG ((((((((...((((((((+))))))))...))))))))”, the Tm was 43.3 °C.

Work on “CGACGTGCACTATGTGCTG+CAGCACATCCAGCACGTCG ((((((((...((((((((+))))))))...))))))))” yielded a Tm of 42.6 °C.

“CGACGTGCACTATGTGCTG+CAGCACATCCGGCACGTCG ((((((((...((((((((+))))))))...))))))))” gave a Tm of 43.2 °C.

For “CGACGTGCACTATGTGCTG+CAGCACATCCTGCACGTCG (((((((((..((((((((+))))))))..)))))))))”, the Tm was 44.9 °C.

In the case of “CGACGTGCACTATGTGCTG+CAGCACATCGAGCACGTCG ((((((((.(.((((((((+)))))))).).))))))))”, the Tm is reported as 46.7 °C.

“CGACGTGCACTATGTGCTG+CAGCACATCGTGCACGTCG ((((((((((.((((((((+)))))))).))))))))))” gave a Tm of 51.4 °C.

“CGACGTGCACTATGTGCTG+CAGCACATCTCGCACGTCG ((((((((...((((((((+))))))))...))))))))” showed a Tm of 41.6 °C.

“CGACGTGCACTATGTGCTG+CAGCACATGAAGCACGTCG ((((((((...((((((((+))))))))...))))))))” showed a Tm of 45.9 °C.

Work on “CGACGTGCACTATGTGCTG+CAGCACATGACGCACGTCG ((((((((...((((((((+))))))))...))))))))” yielded a Tm of 44.6 °C.

With “CGACGTGCACTATGTGCTG+CAGCACATGCAGCACGTCG ((((((((...((((((((+))))))))...))))))))” the Tm was 45.3 °C.

Substance “CGACGTGCACTATGTGCTG+CAGCACATGCGGCACGTCG ((((((((...((((((((+))))))))...))))))))” has a Tm of 43.3 °C.

For “CGACGTGCACTATGTGCTG+CAGCACATGCTGCACGTCG (((((((((..((((((((+))))))))..)))))))))”, the Tm was 45.5 °C.

With “CGACGTGCACTATGTGCTG+CAGCACATGTGGCACGTCG ((((((((...((((((((+))))))))...))))))))” the Tm was 48 °C.

“CGACGTGCACTATGTGCTG+CAGCACATTACGCACGTCG ((((((((...((((((((+))))))))...))))))))” gave a Tm of 43.6 °C.

“CGACGTGCACTATGTGCTG+CAGCACATTAGGCACGTCG ((((((((...((((((((+))))))))...))))))))” showed a Tm of 46.4 °C.

For “CGACGTGCACTATGTGCTG+CAGCACATTATGCACGTCG (((((((((..((((((((+))))))))..)))))))))”, the Tm was 46.2 °C.

For “CGACGTGCACTATGTGCTG+CAGCACATTCGGCACGTCG ((((((((...((((((((+))))))))...))))))))”, the Tm was 43.7 °C.

With “CGACGTGCACTATGTGCTG+CAGCACATTGCGCACGTCG ((((((((.(.((((((((+)))))))).).))))))))” the Tm was 48.8 °C.

“CGACGTGCACTATGTGCTG+CAGCACATTTCGCACGTCG ((((((((...((((((((+))))))))...))))))))” showed a Tm of 43.1 °C.

“CGACGTGCAGAATGTGCTG+CAGCACATAAAGCACGTCG ((((((((...((((((((+))))))))...))))))))” showed a Tm of 50.5 °C.

“CGACGTGCAGAATGTGCTG+CAGCACATATAGCACGTCG ((((((((...((((((((+))))))))...))))))))” gave a Tm of 50.4 °C.

“CGACGTGCAGAATGTGCTG+CAGCACATATCGCACGTCG ((((((((...((((((((+))))))))...))))))))” gave a Tm of 50.9 °C.

With “CGACGTGCAGAATGTGCTG+CAGCACATCAAGCACGTCG ((((((((...((((((((+))))))))...))))))))” the Tm was 50.6 °C.

“CGACGTGCAGAATGTGCTG+CAGCACATCAGGCACGTCG ((((((((...((((((((+))))))))...))))))))” gave a Tm of 51.1 °C.

Work on “CGACGTGCAGAATGTGCTG+CAGCACATCATGCACGTCG (((((((((..((((((((+))))))))..)))))))))” yielded a Tm of 53 °C.

With “CGACGTGCAGAATGTGCTG+CAGCACATCCGGCACGTCG ((((((((.(.((((((((+)))))))).).))))))))” the Tm was 52.7 °C.

Substance “CGACGTGCAGAATGTGCTG+CAGCACATCCTGCACGTCG ((((((((((.((((((((+)))))))).))))))))))” has a Tm of 57.4 °C.

Substance “CGACGTGCAGAATGTGCTG+CAGCACATCGTGCACGTCG (((((((((..((((((((+))))))))..)))))))))” has a Tm of 49 °C.

For “CGACGTGCAGAATGTGCTG+CAGCACATCTCGCACGTCG ((((((((...((((((((+))))))))...))))))))”, the Tm was 51.6 °C.

“CGACGTGCAGAATGTGCTG+CAGCACATCTTGCACGTCG (((((((((..((((((((+))))))))..)))))))))” gave a Tm of 52.3 °C.

“CGACGTGCAGAATGTGCTG+CAGCACATGGCGCACGTCG ((((((((...((((((((+))))))))...))))))))” showed a Tm of 55.9 °C.

Substance “CGACGTGCAGAATGTGCTG+CAGCACATGTAGCACGTCG ((((((((...((((((((+))))))))...))))))))” has a Tm of 53.4 °C.

Substance “CGACGTGCAGAATGTGCTG+CAGCACATGTGGCACGTCG ((((((((...((((((((+))))))))...))))))))” has a Tm of 51.7 °C.

For “CGACGTGCAGAATGTGCTG+CAGCACATTAAGCACGTCG ((((((((..(((((((((+)))))))))..))))))))”, the Tm was 53.3 °C.

In the case of “CGACGTGCAGAATGTGCTG+CAGCACATTACGCACGTCG ((((((((..(((((((((+)))))))))..))))))))”, the Tm is reported as 52.7 °C.

Work on “CGACGTGCAGAATGTGCTG+CAGCACATTCAGCACGTCG ((((((((.((((((((((+)))))))))).))))))))” yielded a Tm of 57.9 °C.

In the case of “CGACGTGCAGAATGTGCTG+CAGCACATTCTGCACGTCG (((((((((((((((((((+)))))))))))))))))))”, the Tm is reported as 64.2 °C.

Work on “CGACGTGCAGAATGTGCTG+CAGCACATTGGGCACGTCG ((((((((..(((((((((+)))))))))..))))))))” yielded a Tm of 53.8 °C.

With “CGACGTGCAGAATGTGCTG+CAGCACATTTAGCACGTCG ((((((((..(((((((((+)))))))))..))))))))” the Tm was 53.3 °C.

With “CGACGTGCAGAATGTGCTG+CAGCACATTTCGCACGTCG ((((((((..(((((((((+)))))))))..))))))))” the Tm was 53.5 °C.

“CGACGTGCAGAATGTGCTG+CAGCACATTTGGCACGTCG ((((((((..(((((((((+)))))))))..))))))))” showed a Tm of 54.3 °C.

Work on “CGACGTGCAGAATGTGCTG+CAGCACATTTTGCACGTCG (((((((((.(((((((((+))))))))).)))))))))” yielded a Tm of 57 °C.

“CGACGTGCAGCATGTGCTG+CAGCACATAACGCACGTCG ((((((((...((((((((+))))))))...))))))))” showed a Tm of 47.6 °C.

“CGACGTGCAGCATGTGCTG+CAGCACATAAGGCACGTCG ((((((((...((((((((+))))))))...))))))))” showed a Tm of 47.6 °C.

With “CGACGTGCAGCATGTGCTG+CAGCACATACCGCACGTCG ((((((((.(.((((((((+)))))))).).))))))))” the Tm was 47.3 °C.

With “CGACGTGCAGCATGTGCTG+CAGCACATACTGCACGTCG ((((((((((.((((((((+)))))))).))))))))))” the Tm was 55.7 °C.

Work on “CGACGTGCAGCATGTGCTG+CAGCACATAGGGCACGTCG ((((((((...((((((((+))))))))...))))))))” yielded a Tm of 46.4 °C.

With “CGACGTGCAGCATGTGCTG+CAGCACATAGTGCACGTCG (((((((((..((((((((+))))))))..)))))))))” the Tm was 44.4 °C.

With “CGACGTGCAGCATGTGCTG+CAGCACATATAGCACGTCG ((((((((...((((((((+))))))))...))))))))” the Tm was 46.3 °C.

“CGACGTGCAGCATGTGCTG+CAGCACATATCGCACGTCG ((((((((...((((((((+))))))))...))))))))” gave a Tm of 46.6 °C.

Substance “CGACGTGCAGCATGTGCTG+CAGCACATATTGCACGTCG (((((((((..((((((((+))))))))..)))))))))” has a Tm of 49.1 °C.

In the case of “CGACGTGCAGCATGTGCTG+CAGCACATCACGCACGTCG ((((((((...((((((((+))))))))...))))))))”, the Tm is reported as 46.7 °C.

In the case of “CGACGTGCAGCATGTGCTG+CAGCACATCAGGCACGTCG ((((((((...((((((((+))))))))...))))))))”, the Tm is reported as 47.3 °C.

“CGACGTGCAGCATGTGCTG+CAGCACATCCCGCACGTCG ((((((((.(.((((((((+)))))))).).))))))))” gave a Tm of 46.3 °C.

Reference: the array DNA melting data of Ke et al.
